The target of assay [1] is T1, CD3E on the surface of Jurkat-NFAT-Luc cells (UniProt P07766 23-207). Description: cell-based or functional assay.
The target in assay [2] is T1, CD3E on the surface of Jurkat-NFAT-Luc …. The assay is described as follows: cell-based or functional assay. This is another data set of the same source.
For the next assay, the target named is T2, human GPRC5D (human, UniProt Q9NZD1 1-345).
T2 construct: whole, on cells; also called huGPRC5D; G protein-coupled receptor family C group 5 member D
T2 sequence (Q9NZD1 whole entry): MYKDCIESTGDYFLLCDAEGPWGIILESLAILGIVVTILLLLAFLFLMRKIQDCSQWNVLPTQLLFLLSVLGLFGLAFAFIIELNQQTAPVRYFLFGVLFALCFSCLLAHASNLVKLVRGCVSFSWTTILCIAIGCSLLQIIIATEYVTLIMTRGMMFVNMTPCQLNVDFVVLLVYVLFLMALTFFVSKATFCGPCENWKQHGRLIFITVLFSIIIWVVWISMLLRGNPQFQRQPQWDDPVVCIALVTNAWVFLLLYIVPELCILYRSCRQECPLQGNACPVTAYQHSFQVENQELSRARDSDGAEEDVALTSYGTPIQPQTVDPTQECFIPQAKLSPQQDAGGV
Description: flow cytometry on huGPRC5D GS-CHO cells. Here is the method:
The affinity of the anti-GPRC5D antibody was detected by flow cytometry. Antibodies at various concentrations were co-incubated with cells expressing human GPRC5D, including GS-CHO cells overexpressing human GPRC5D (huGPRC5D GS-CHO), multiple myeloma cells MM1.R, H929 and AMO-1, for 30 min. A fluorescently-labeled secondary antibody (APC-mouse anti-human IgG Fc antibody, Biolegend, Cat #409306) was then added, the cell fluorescence intensity was detected using a Live/Dead yellow dead cell stain (Thermo Fisher, Cat #L34967) by flow cytometry, a curve was fitted using GraphPad Prism 8.0, and the EC50 value was calculated to show the binding affinity of the antibody to human GPRC5D.
In the exemplary trispecific antibodies, the binding affinities of the antigen-binding sites from the humanized antibodies hz5E12.1.P1 and hz11B7.5 to GPRC5D were detected.
A general note: A flow cytometer gives signals particle by particle.

In another assay the target is T3, Human BCMA-Bio (human, UniProt Q02223 1-54, biotin-labeled).
T3 construct: Bought antigen; also called human BCMA antigen (ACRO Biosystems)
T3 sequence (looked up): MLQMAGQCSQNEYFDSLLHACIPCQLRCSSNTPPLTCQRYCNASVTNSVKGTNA
Description: BLI (Octet Red96e), SA or AHC sensors, 1:1 fit. Here is the method:
(§1) Sensors (Fortebio, Cat #18-5019) coupled to streptavidin protein (SA) or anti-human-Fc (AHC) were pre-wetted by immersion in 200 μL of SD buffer (1×PBS, 0.1% BSA, 0.05% tween-20). Exemplary antibodies and biotin-labeled or Fc-tagged BCMA and CD3D&E heterodimer antigens were diluted with SD buffer, respectively. 200 μL of SD buffer and diluted samples (100 nM) were taken and added to a 96-well black plate (Greiner, Cat #655209), respectively. The sensors and the samples were placed in Octet (Fortebio, Red96e). Data Acquisition 10.0 was executed and “New Kinetic Experiment” was selected. The sensors were arranged according to the positions of the samples, and the operation procedures and times were set as: Baseline 60 s, Loading 250 s, Baseline 100 s, Association 600 s and Dissociation 600 s. The experiment was conducted at a rotation speed of 1000 rpm and 30° C.
(§2) The results were analyzed in “Data Analysis 10.0” software, with the buffer reference channel being subtracted. 1:1 binding was selected to fit the data, and kₒₙ, koff, and KD values for the exemplary antibodies were calculated.
(§3) In the experiments performed according to the above-mentioned assay, the exemplary antibodies were detected using a human BCMA antigen (ACRO Biosystems) and a monkey BCMA antigen (ACRO Biosystems). The detection results of the affinities to human BCMA are shown in Table 6; and the detection results of the affinities to monkey BCMA are shown in Table 7.

Another assay concerns the target T4, Cyno BCMA-Fc (monkey (cyno), UniProt A0A2K5UD97 1-53).
T4 construct: also called monkey BCMA antigen (ACRO Biosystems); not shown: Fc tag of the bought antigen
The assay is described as follows: BLI (Octet Red96e), SA or AHC sensors, 1:1 fit. Here is the method: as §1, §2, §3
In general terms: Biolayer interferometry detects binding as a change in optical thickness at a sensor tip.

In a further assay the target is T5, Human CD3D&E-Bio (human, UniProt P07766 23-126; P04234 22-105, biotin-labeled (site not stated)).
T5 construct: Bought heterodimer antigen; also called human CD3D&E heterodimer antigen (ACRO Biosystems); human CD3E
T5 sequence (P07766 23-126 limits assumed, chain 1 of 2): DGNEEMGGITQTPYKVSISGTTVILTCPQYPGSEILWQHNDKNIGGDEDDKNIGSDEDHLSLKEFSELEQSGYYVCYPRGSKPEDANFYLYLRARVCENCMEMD
T5 sequence (P04234 22-105 limits assumed, chain 2 of 2): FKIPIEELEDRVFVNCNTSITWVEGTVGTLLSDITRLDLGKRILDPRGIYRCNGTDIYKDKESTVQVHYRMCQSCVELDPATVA
The assay is described as follows: BLI (Octet Red96e), SA or AHC sensors, 1:1 fit. Here is the method: as §1, §2
(§4) In experiments performed according to the above-mentioned assay, the affinities of the exemplary antibodies were detected using a human CD3D&E heterodimer antigen (ACRO Biosystems) and a monkey CD3D&E heterodimer antigen (ACRO Biosystems). The binding affinities of GPRC5D×CD3 bispecific antibodies hz5E12.1-P1/SP34.24 and hz5E12.1-P1/SP34.87 to human/monkey CD3D&E were also detected.

The target of a further assay is T6, Cyno CD3D&E-Bio (monkey (cyno), UniProt Q95LI5 22-117; Q95LI8 22-105, biotin-labeled (site not stated)).
T6 construct: Bought heterodimer antigen; also called monkey CD3D&E heterodimer antigen (ACRO Biosystems); monkey CD3E
T6 sequence (Q95LI5 22-117 limits assumed, chain 1 of 2): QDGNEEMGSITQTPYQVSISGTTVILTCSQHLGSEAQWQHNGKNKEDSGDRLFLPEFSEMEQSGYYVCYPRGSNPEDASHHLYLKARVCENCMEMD
T6 sequence (Q95LI8 22-105 limits assumed, chain 2 of 2): as the sequence (P04234 22-105 limits assumed, chain 2 of 2) above, with I5V, N15K, I20V, S32T, D33N, I34N, T64A, S74N, V83L counted along it
Description: BLI (Octet Red96e), SA or AHC sensors, 1:1 fit. Here is the method:
as §1, §2, §4

Experimental findings from patent US20250074996A1 (Innovent, published 2025) are described below.

T4 sequence (A0A2K5UD97 entry or part of it): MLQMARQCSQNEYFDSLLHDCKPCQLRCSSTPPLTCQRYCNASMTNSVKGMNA
T1 sequence (P07766 23-207): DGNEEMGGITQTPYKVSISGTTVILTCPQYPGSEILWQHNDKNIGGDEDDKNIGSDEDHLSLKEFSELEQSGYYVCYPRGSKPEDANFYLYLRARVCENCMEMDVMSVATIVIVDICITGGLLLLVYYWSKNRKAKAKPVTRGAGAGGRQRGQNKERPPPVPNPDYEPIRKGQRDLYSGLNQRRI

B1: TS-F2-4 (hz5E12.1.P1/SP34.24/38456) (antibody, human IgG1, kappa, lambda, L234A L235A)
heavy 1: not shown
light 1: DIVMTQSPDSLAVSLGERATINCRASESVDSYGITFMNWYQQKPGQPPKLLIYAASNQGSGVPDRFSGSGSGTDFTLTISSLQAEDVAVYYCQQSKEVPWTFGQGTKLEIKRTVAAPSVFIFPPSDEQLKSGTASVVCLLNNFYPREAKVQWKVDNALQSGNSQESVTEQDSKDSTYSLSSTLTLSKADYEKHKVYACEVTHQGLSSPVTKSFNRGEC
heavy 2: not shown
light 2: QAVVTQEPSLTVSPGGTVTLTCRSSTGAVTTSNYANWVQQKPGQAPRGLIGGTNKRAPGVPARFSGSLLGDKAALTLLGAQPEDEAEYYCALWYSNLWVFGQGTKLTVLGQPKAAPSVTLFPPSSEELQANKATLVCLISDFYPGAVTVAWKADSSPVKAGVETTTPSKQSNNKYAASSYLSLTPEQWKSHRSYSCQVTHEGSTVEKTVAPTECS
Regarding B1, in assay [1], the “EC50 of Jurkat-NFAT-Luc luciferase activation; tumor cells 8226” value was determined as 0.00788 nM, the “EC50 of Jurkat-NFAT-Luc luciferase activation; tumor cells H929” value was determined as 0.00738 nM, the “EC50 of Jurkat-NFAT-Luc luciferase activation; tumor cells L363” value is 0.00629 nM and the “EC50 of Jurkat-NFAT-Luc luciferase activation; tumor cells U266” value was found to be 0.0503 nM. In assay [2], the “EC50 of Jurkat-NFAT-Luc luciferase activation; tumor cells ARD” value came out at 0.00238 nM and the “EC50 of Jurkat-NFAT-Luc luciferase activation; tumor cells MM.1S” value came out at 0.00179 nM. Also, the response in the assay with human GPRC5D was half-maximal at 40 nM (EC50). In addition, in the assay with Human BCMA-Bio, binding was characterised by a dissociation constant (Kd) of 2.27 nM; the dissociation rate constant (koff) (as a rule, the rate constant with which the complex falls apart) stood at 0.000297 s⁻¹; the kon – broadly, a measure of how fast the partners come together – was 131000 M⁻¹ s⁻¹. Besides, in the assay with Cyno BCMA-Fc, the Kd – broadly, the equilibrium constant for the complex coming apart – was 0.204 nM; the off-rate (koff) was 0.0002 s⁻¹; the on-rate constant (kon) worked out at 980000 M⁻¹ s⁻¹. In the assay with Human CD3D&E-Bio, the Kd is 22.1 nM, the koff is 0.00326 s⁻¹ and the kon is 147000 M⁻¹ s⁻¹. In the assay with Cyno CD3D&E-Bio, this molecule gave a Kd of 22.7 nM, a koff of 0.00301 s⁻¹ and an on-rate constant (kon) of 132000 M⁻¹ s⁻¹.

B2: TS-F2-5 (hz5E12.1.P1/SP34.87/38456) (antibody, human IgG1, kappa, lambda, L234A L235A)
heavy 1: not shown
light 1: DIVMTQSPDSLAVSLGERATINCRASESVDSYGITFMNWYQQKPGQPPKLLIYAASNQGSGVPDRFSGSGSGTDFTLTISSLQAEDVAVYYCQQSKEVPWTFGQGTKLEIKRTVAAPSVFIFPPSDEQLKSGTASVVCLLNNFYPREAKVQWKVDNALQSGNSQESVTEQDSKDSTYSLSSTLTLSKADYEKHKVYACEVTHQGLSSPVTKSFNRGEC
heavy 2: not shown
light 2: QAVVTQEPSLTVSPGGTVTLTCRSSTGAVTTSNYANWVQQKPGQAPRGLIGGTNKRAPGVPARFSGSLLGDKAALTLLGAQPEDEAEYYCALWYSNLWVFGQGTKLTVLGQPKAAPSVTLFPPSSEELQANKATLVCLISDFYPGAVTVAWKADSSPVKAGVETTTPSKQSNNKYAASSYLSLTPEQWKSHRSYSCQVTHEGSTVEKTVAPTECS
Turning to B2, in assay [1], the “EC50 of Jurkat-NFAT-Luc luciferase activation; tumor cells 8226” value stood at 0.0211 nM, the “EC50 of Jurkat-NFAT-Luc luciferase activation; tumor cells H929” value was 0.0178 nM, the “EC50 of Jurkat-NFAT-Luc luciferase activation; tumor cells L363” value was 0.0213 nM and the “EC50 of Jurkat-NFAT-Luc luciferase activation; tumor cells U266” value came to 0.858 nM. Also, in assay [2], the “EC50 of Jurkat-NFAT-Luc luciferase activation; tumor cells ARD” value is 0.00696 nM and the “EC50 of Jurkat-NFAT-Luc luciferase activation; tumor cells MM.1S” value was found to be 0.00734 nM. Moreover, a half-maximal effect in the assay with human GPRC5D (EC50) was put at 45 nM. In the assay with Human BCMA-Bio, this molecule gave an equilibrium dissociation constant (Kd) of 2.1 nM, a koff of 0.000279 s⁻¹ and an on-rate constant (kon) of 133000 M⁻¹ s⁻¹. In the assay with Cyno BCMA-Fc, the affinity, expressed as Kd, was 0.21 nM; the koff is 0.0002 s⁻¹; the kon was 950000 M⁻¹ s⁻¹. In the assay with Human CD3D&E-Bio, this molecule showed a Kd of 243 nM, a koff of 0.0188 s⁻¹ and a kon of 77500 M⁻¹ s⁻¹. Besides, in the assay with Cyno CD3D&E-Bio, binding was put at a Kd of 220 nM, the koff is 0.0173 s⁻¹ and the kon turned out to be 78600 M⁻¹ s⁻¹.
